In article PMC3573116 (PLoS Pathogens, 2013):

B1: human MAb 87.1 LALA (IgG1) (antibody, V domains shown)
VH: EVQLVESGGGLVQPGRSLRLSCAASGFTFDDYAMFWVRQAPGKGLEWISGISWNSATIGYADSVKGRFTISRDNAKKSLDLQMNSLRPDDTALYYCAKGGPRGLQLLSSWVDYWGQGTLVTVSS
VL: DIQMTQSPSSLSASVGDRVTITCRASQDIRRYLNWYQQRPGRVPQLLIYTTSTLQSGVPSRFSGSGSVTDFTLTISSLQPEDFGTYYCQQSYSPPHTFGQGTKLEIK
notes: source: HEK-293T, purified (protein A, size-exclusion chromatography)
B2: human MAb 82.11 LALA (IgG1) (antibody, V domains shown)
VH: QAHLVESGGGVVQPGRSLRLSCAASAFNFSTNAMHWVRQAPGKGLEWVAVISYDGSHKYYADSVKGRFTISRDNSKNTLYLQMNSLRAADTAVYYCATVGVLTWPVNAEYFHHWGQGSLVSVSS
VL: QSVLTQPPSVSGAPGQRVTISCTGSSSNIGAGYDVHWYQQLPGTAPKLLICGNNNRPSGVPDRFSGSKSGTSASLAITGLQAEDEADYYCQSYDSSLTGVVFGGGTKLTVL
notes: as for B1
B3: chimeric human-mouse MAb E18 (human IgG1), non-modified (antibody, V domains shown)
VH: QIQLVQSGPELKKPGETVKISCKASGYTFTDYSMHWVKQAPGKGLKWMGWFNTETGEPTYADDFKGRFAFSLETSASTAFLQINNLKNEDTATYFCARGGDFYSVDYWGQGTSVTVSS
VL: DIQMTQTTSSLSASLGDRVTISCRASQDITNYLNWYQQKPDGTVKLLIYYTSGLHSGVPSRFSGSGSGTDYSLTISNLEQEDIATYFCQQGNTLPPTFGGGTKLEIK
notes: source: HEK-293T, transfected, purified from supernatant (protein A)
B4: chimeric human-mouse MAb E18 N297Q (human IgG1, aglycosylated) (antibody, V domains shown)
VH: QIQLVQSGPELKKPGETVKISCKASGYTFTDYSMHWVKQAPGKGLKWMGWFNTETGEPTYADDFKGRFAFSLETSASTAFLQINNLKNEDTATYFCARGGDFYSVDYWGQGTSVTVSS
VL: DIQMTQTTSSLSASLGDRVTISCRASQDITNYLNWYQQKPDGTVKLLIYYTSGLHSGVPSRFSGSGSGTDYSLTISNLEQEDIATYFCQQGNTLPPTFGGGTKLEIK
notes: as for B3
B5: chimeric human-mouse MAb E44 (human IgG1), non-modified (antibody, V domains shown)
VH: QVQLKESGPGLVAPSQSLSITCTVSGFSLTSYGVDWVRQSPGKGLEWLGVIWGAGSTNYNSAFRSRLSISKDNSKSQVFLKMNSLQTDDTAMYYCASGTGTGAMDYWGQGTSVTVSS
VL: DIVLTQSPATLSVTPGDSVSLSCRASQSISNNLHWYQQKSHESPRLLIFYSSQSISGIPSRFSGSGSGTDFTLRINSVETEDFGMYFCQQSNNWPHTFGRGTKLDMK
notes: as for B3
B6: chimeric human-mouse MAb E44 N297Q (human IgG1, aglycosylated) (antibody, V domains shown)
VH: QVQLKESGPGLVAPSQSLSITCTVSGFSLTSYGVDWVRQSPGKGLEWLGVIWGAGSTNYNSAFRSRLSISKDNSKSQVFLKMNSLQTDDTAMYYCASGTGTGAMDYWGQGTSVTVSS
VL: DIVLTQSPATLSVTPGDSVSLSCRASQSISNNLHWYQQKSHESPRLLIFYSSQSISGIPSRFSGSGSGTDFTLRINSVETEDFGMYFCQQSNNWPHTFGRGTKLDMK
notes: as for B3
B7: chimeric human-mouse MAb E28 (human IgG1), non-modified (antibody, V domains shown)
VH: QIQLVQSGPELKKPGETVKISCKASGYTFTDYSMHWVKQTPGKGLKWLGWINPKTGEPTYVDDFKGRFAFYLETSSSTAYLQITNLKNEDTATYFCARGYDYYSVDYWGQGTLVTVSS
VL: DIQMTQTTSSLSASLGARVTISCRANQDINNYLHWYQQKPDGTIKLLVYYTSGLHSGVPSRFIGSGSGTDYSLTITNLEQEDIATYFCQQGNTLPLTFGAGTKLELK
notes: as for B3
B8: chimeric human-mouse MAb E28 N297Q (human IgG1, aglycosylated) (antibody, V domains shown)
VH: QIQLVQSGPELKKPGETVKISCKASGYTFTDYSMHWVKQTPGKGLKWLGWINPKTGEPTYVDDFKGRFAFYLETSSSTAYLQITNLKNEDTATYFCARGYDYYSVDYWGQGTLVTVSS
VL: DIQMTQTTSSLSASLGARVTISCRANQDINNYLHWYQQKPDGTIKLLVYYTSGLHSGVPSRFIGSGSGTDYSLTITNLEQEDIATYFCQQGNTLPLTFGAGTKLELK
notes: as for B3
B9: chimeric human-mouse MAb E60 (human IgG1), non-modified (antibody, V domains shown)
VH: EVQVQQSGPELVTPGASVKISCKTSGYTFTEYTVHWVKQSHGKSLEWIGGINPTSGGTNYNQRFRGKATLTVDRSSSTAYMELRSLTSEDSAVYFCAGTLYGYPFDFWGQGTTLTVSS
VL: DILMTQSPSSMSVSLGDSVSITCHASQGISGNIGWLQQKPGKSFKGLIYHGTNLEEGVPSRFSGSGSGADYSLTISSLESEDFADYYCVQYGQFPPTFGGGTKLEIK
notes: also called intact E60; E60 parent; source: HEK-293T, transfected, purified from supernatant (protein A)
B10: chimeric human-mouse MAb E60 N297Q (human IgG1, aglycosylated) (antibody, V domains shown)
VH: EVQVQQSGPELVTPGASVKISCKTSGYTFTEYTVHWVKQSHGKSLEWIGGINPTSGGTNYNQRFRGKATLTVDRSSSTAYMELRSLTSEDSAVYFCAGTLYGYPFDFWGQGTTLTVSS
VL: DILMTQSPSSMSVSLGDSVSITCHASQGISGNIGWLQQKPGKSFKGLIYHGTNLEEGVPSRFSGSGSGADYSLTISSLESEDFADYYCVQYGQFPPTFGGGTKLEIK
notes: also called modified E60; source: HEK-293T, transfected, purified from supernatant (protein A)
B11: chimeric human-mouse MAb E76 (human IgG1), non-modified (antibody, V domains shown)
VH: QVTLKESGPGILQSSQTLSLTCSFSGFSLSTSSMGVSWIRQPSGKGLEWLAHIYWDDDKRYSPSLKSRLTISKDTSRNQVFLKITSVENVDSATYYCARKDGYVPYSLDYWGQGISVTVSS
VL: DIVMTQSHKFMSTSVGDRVSISCKASQAVGTAVAWYQQKPGQSPKLLIYWASTRHTGVPDRFTGSGSGTDFTLTINNVQSEDLADYFCHQYTSYPLTFGTGTKLELK
notes: as for B3
B12: chimeric human-mouse MAb E76 N297Q (human IgG1, aglycosylated) (antibody, V domains shown)
VH: QVTLKESGPGILQSSQTLSLTCSFSGFSLSTSSMGVSWIRQPSGKGLEWLAHIYWDDDKRYSPSLKSRLTISKDTSRNQVFLKITSVENVDSATYYCARKDGYVPYSLDYWGQGISVTVSS
VL: DIVMTQSHKFMSTSVGDRVSISCKASQAVGTAVAWYQQKPGQSPKLLIYWASTRHTGVPDRFTGSGSGTDFTLTINNVQSEDLADYFCHQYTSYPLTFGTGTKLELK
notes: as for B3
B13: chimeric human-mouse MAb E87 (human IgG1), non-modified (antibody, V domains shown)
VH: QVQLQQPGADLVRPGTSVKLSCKASGYTFTIYWMHWVKQRPGQGLEWIGVIDPSAGYTNYSQNFKDKATLTVDTSSSTAYMQLNSLTSEDSAVYYCARHGHYFGTSYWYFDVWGTGTTVTVSS
VL: DIVMSQSPSSLAVSVGEKVTMRCKSSQSLLYSRNQKNYLAWYQQKPGQSPKVLIYWASTRESGVPDRFTGSGSGTDFTLTISSVKTEDLSVYYCQQYYSYPFTFGSGTKLEIK
notes: as for B3
B14: chimeric human-mouse MAb E87 N297Q (human IgG1, aglycosylated) (antibody, V domains shown)
VH: QVQLQQPGADLVRPGTSVKLSCKASGYTFTIYWMHWVKQRPGQGLEWIGVIDPSAGYTNYSQNFKDKATLTVDTSSSTAYMQLNSLTSEDSAVYYCARHGHYFGTSYWYFDVWGTGTTVTVSS
VL: DIVMSQSPSSLAVSVGEKVTMRCKSSQSLLYSRNQKNYLAWYQQKPGQSPKVLIYWASTRESGVPDRFTGSGSGTDFTLTISSVKTEDLSVYYCQQYYSYPFTFGSGTKLEIK
notes: as for B3

Target: T1, DENV2 D2S10 envelope (E) protein on virions (dengue virus 2 (DENV2), strain D2S10)
T1 construct: also called DENV2 virions
Test: ELISA
Conditions: one partner purified

| Binder | Kd [nM] |
| --- | --- |
| B1 | 0.34 |
| B2 | 0.91 |
| B3 | 2.74 |
| B4 | 3.46 |
| B5 | 0.14 |
| B6 | 0.84 |
| B7 | 2.7 |
| B8 | 2.88 |
| B9 | 1.14 |
| B10 | 1.18 |
| B11 | 0.84 |
| B12 | 1.1 |
| B13 | 1.07 |
| B14 | 1.43 |
